Laboratory results: patent US20200157212A1 (Pfizer, published 2020)

What was measured:
Rat ROBO2 on cells = target: T1, Rat ROBO2 on cells (rat, UniProt Q7TPD3 22-1469 (mouse entry)); experiment: cell-based or functional assay
T1 chain: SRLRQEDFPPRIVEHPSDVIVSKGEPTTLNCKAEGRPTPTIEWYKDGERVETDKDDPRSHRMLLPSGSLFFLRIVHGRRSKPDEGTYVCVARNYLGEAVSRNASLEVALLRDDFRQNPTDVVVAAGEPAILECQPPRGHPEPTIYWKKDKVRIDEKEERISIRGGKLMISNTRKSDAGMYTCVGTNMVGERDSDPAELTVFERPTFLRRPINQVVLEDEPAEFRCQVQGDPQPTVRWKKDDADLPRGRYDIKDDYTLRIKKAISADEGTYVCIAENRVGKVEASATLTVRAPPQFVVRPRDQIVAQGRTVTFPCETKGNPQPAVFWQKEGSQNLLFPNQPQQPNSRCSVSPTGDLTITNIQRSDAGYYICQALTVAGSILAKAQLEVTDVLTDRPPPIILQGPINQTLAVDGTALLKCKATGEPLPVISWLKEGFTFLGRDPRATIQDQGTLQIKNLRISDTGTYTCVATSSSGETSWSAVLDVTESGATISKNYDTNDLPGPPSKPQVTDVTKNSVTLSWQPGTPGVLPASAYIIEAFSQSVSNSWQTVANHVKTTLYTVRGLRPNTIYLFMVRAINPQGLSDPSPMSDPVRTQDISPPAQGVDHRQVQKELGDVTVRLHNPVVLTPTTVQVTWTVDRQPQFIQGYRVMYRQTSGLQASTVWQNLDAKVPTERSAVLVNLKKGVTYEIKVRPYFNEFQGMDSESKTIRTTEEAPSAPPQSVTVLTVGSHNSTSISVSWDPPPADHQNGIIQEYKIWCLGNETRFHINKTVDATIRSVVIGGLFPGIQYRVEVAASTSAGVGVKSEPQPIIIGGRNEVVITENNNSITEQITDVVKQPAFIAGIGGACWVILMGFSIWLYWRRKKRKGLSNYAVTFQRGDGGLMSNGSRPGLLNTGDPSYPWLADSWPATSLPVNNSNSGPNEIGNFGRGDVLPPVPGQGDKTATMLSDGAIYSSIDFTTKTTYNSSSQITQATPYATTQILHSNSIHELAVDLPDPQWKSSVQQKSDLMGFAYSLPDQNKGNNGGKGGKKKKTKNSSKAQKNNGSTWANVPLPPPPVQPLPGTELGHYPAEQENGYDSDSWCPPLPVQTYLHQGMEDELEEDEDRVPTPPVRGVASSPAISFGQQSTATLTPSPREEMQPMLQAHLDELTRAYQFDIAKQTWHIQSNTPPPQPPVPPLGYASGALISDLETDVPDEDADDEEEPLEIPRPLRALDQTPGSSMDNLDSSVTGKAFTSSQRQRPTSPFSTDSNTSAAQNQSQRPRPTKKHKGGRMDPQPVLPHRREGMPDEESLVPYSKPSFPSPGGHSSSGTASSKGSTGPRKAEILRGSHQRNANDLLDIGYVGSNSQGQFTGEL

Human ROBO2 Ig1-Ig2-His [1] = target: T2, Human ROBO2 Ig1-Ig2-His (human, UniProt Q9HCK4 31-220); experiment: SPR, Biacore T200, Abcs35 immobilized on CM5 chip, ROBO2 Ig1-Ig2-His as analyte
T2 construct: the His tag is named only in the SPR paragraphs; the Octet and ELISA paragraphs print 'ROBO2 Ig1-Ig2' without a tag; also called ROBO2 Ig1-2; Human ROBO2 Ig 1,2
T2 sequence: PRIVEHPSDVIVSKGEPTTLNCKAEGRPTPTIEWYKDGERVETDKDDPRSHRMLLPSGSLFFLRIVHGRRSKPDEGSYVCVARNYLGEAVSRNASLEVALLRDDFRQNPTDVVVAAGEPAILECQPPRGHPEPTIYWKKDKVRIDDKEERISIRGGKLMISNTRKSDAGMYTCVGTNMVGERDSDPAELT
Protocol: (§1) […] Association and dissociation were followed over time.
(§2) Based upon several criteria, Abcs25 and Abcs35 were selected for further characterization. Using flow cytometry, improvement in the binding EC₅₀ to human ROBO2 relative to the parental 93H2 was evaluated. Starting at 6.7 nM, 11-point, 3-fold dilution series were made for each antibody and used to stain HEK293 overexpressing human ROBO2 as described above for the ROBO2 fold selectivity (Example 2). […] In addition to measuring improved binding to human ROBO2, it was important to ensure that high affinity binding to both cynomolgus monkey ROBO2 and rat ROBO2 was maintained. Using HEK293 cells overexpressing either cynomolgus monkey ROBO2 or rat ROBO2, the relative dose-dependent binding of 93H2, Abcs25 and Abcs35 was evaluated as described above. High affinity binding to both cynomolgus monkey and rat ROBO2 was maintained in Abcs25 and Abcs35 (Table 4). […] Briefly, Abcs35 was immobilized to 300 resonance units (RU) on a CM5 chip. Association of ROBO2 Ig1-Ig2-His (ROBO2) was measured over 5 minutes and dissociation was followed for a period of 10 minutes.

Human ROBO2 Ig1-Ig2-His [2] = target: T2, Human ROBO2 Ig1-Ig2-His; experiment: SPR (Biacore T200), Abcs35 immobilized on a CM5 chip, ROBO2 Ig1-Ig2-His as analyte; column head kon(1/Ms)
Protocol: as §1, §2

B1: Abcs35 (antibody, human IgG1, kappa)
heavy: EVQLVQSGAEVKKPGASVKVSCKASGYTFTGYYMHWVRQAPGQGLEWMGWINPKNGDTEFPQKFQGRVTMTRDTSITTAYMDLSRLRSDDTAVYYCARESGDDAFDIWGQGTMVTVSSASTKGPSVFPLAPSSKSTSGGTAALGCLVKDYFPEPVTVSWNSGALTSGVHTFPAVLQSSGLYSLSSVVTVPSSSLGTQTYICNVNHKPSNTKVDKKVEPKSCDKTHTCPPCPAPEAAGAPSVFLFPPKPKDTLMISRTPEVTCVVVDVSHEDPEVKFNWYVDGVEVHNAKTKPREEQYNSTYRVVSVLTVLHQDWLNGKEYKCKVSNKALPAPIEKTISKAKGQPREPQVYTLPPSREEMTKNQVSLTCLVKGFYPSDIAVEWESNGQPENNYKTTPPVLDSDGSFFLYSKLTVDKSRWQQGNVFSCSVMHEALHNHYTQKSLSLSPGK
light: DIVMTQSPSSLSASVGDRVTITCRASQSISSYLNWYQQKPGKAPKLLIYAASSLQSGVPSRFSGSGSGTDFTLTISSLQPEDFATYYCQQSVGLFFGGGTKVEIKRTVAAPSVFIFPPSDEQLKSGTASVVCLLNNFYPREAKVQWKVDNALQSGNSQESVTEQDSKDSTYSLSSTLTLSKADYEKHKVYACEVTHQGLSSPVTKSFNRGEC
notes: fully human IgG1; VH of Ab96 with VL of Ab123
- IC50, restoration of neuronal cell migration (SVZa assay) (Rat ROBO2 on cells): 0.027 nM
- Kd (Human ROBO2 Ig1-Ig2-His [1]): 0.268 nM
- kon (Human ROBO2 Ig1-Ig2-His [2]): 2.96e+07 M⁻¹ s⁻¹
